Results reported in patent publication US20230346919A1.

Target: SARS-CoV-2 spike SΔ21 displayed on VSV-eGFP-SARS-CoV-2-SΔ21 particles (SARS-CoV-2 isolate Wuhan-Hu-1) (UniProt P0DTC2)
Assay: cell-based or functional assay

With “human ACE2-Fc (hACE2 residues 1-615, HRV-3C site, human IgG1 Fc) (from UniProt Q9BYF1 18-615) (Fc fusion)” the EC50, inhibition of VSV-SARS-CoV-2-SΔ21 infection (GRNT, Vero E6 cells) was 29 mg/L.
